T1: human (37-176)/murine (174-192) IL-18 chimera (human; mouse, UniProt Q14116 37-188)
T1 chain: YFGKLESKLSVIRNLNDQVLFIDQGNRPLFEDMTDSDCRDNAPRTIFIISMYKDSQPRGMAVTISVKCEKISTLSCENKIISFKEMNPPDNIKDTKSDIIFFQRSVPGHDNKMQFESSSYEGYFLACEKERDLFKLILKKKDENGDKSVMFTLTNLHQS

T2: human/murine IL-18 chimera in which C-terminal human IL-18 residues 92-193 were replaced by the corresponding … (human; mouse)
T2 construct: Mature form after caspase-1 cleavage; also called human (37-91)/murine IL-18 chimera; not shown: C-terminal V5 and His tags and any linker to them
T2 chain: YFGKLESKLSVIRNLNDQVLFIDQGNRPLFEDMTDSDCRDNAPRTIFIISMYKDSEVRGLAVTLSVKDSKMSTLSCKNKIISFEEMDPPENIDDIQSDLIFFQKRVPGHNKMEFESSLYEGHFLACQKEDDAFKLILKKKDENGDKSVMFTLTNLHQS

T3: murine IL-18, mature, with C-terminal V5 and His tags (mouse, UniProt P70380 36-192)
T3 construct: also called IL-18 mouse
T3 sequence: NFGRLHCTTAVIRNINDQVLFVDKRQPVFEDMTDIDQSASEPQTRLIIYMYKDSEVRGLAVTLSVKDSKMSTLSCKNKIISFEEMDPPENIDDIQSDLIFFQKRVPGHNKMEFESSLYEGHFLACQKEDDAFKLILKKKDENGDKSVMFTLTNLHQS

T4: human/murine IL-18 chimera in which C-terminal human IL-18 residues 120-193 were replaced by the … (human; mouse)
T4 construct: Mature form after caspase-1 cleavage; also called human (37-119)/murine IL-18 chimera; not shown: C-terminal V5 and His tags and any linker to them
T4 chain: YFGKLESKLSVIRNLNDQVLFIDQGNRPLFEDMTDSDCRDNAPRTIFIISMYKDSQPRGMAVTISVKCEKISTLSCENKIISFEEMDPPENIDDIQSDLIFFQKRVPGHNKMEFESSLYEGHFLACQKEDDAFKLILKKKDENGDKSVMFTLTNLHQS


Tests used:
[1] = target: T1, human (37-176)/murine (174-192) IL-18 …; experiment: sandwich ELISA: tagged IL-18 chimera captured by the test antibody, detected with an anti-tag antibody
[2] = target: recombinant human IL-18 (KG-1 bioassay) (human, UniProt Q14116 37-193); experiment: cell-based or functional assay
[3] = target: natural human IL-18 (whole blood assay) (human, UniProt Q14116 37-193); experiment: cell-based or functional assay
[4] = target: T5, mutant human IL-18 (mature form of pro-IL-18-5C→A, cysteines mutated to alanine) (human, UniProt Q14116 37-193); experiment: method not stated (Biacore is named later in the paragraph)
T5 construct: also called Mutant IL-18; pro-IL-18-5C→A after caspase-1 cleavage

[5] = target: T2, human/murine IL-18 chimera in which …; experiment: sandwich ELISA, capture by test antibody, detection by anti-tag antibody
[6] = target: T1, human (37-176)/murine (174-192) IL-18 …; experiment: as above
[7] = target: T3, murine IL-18, mature, with C-terminal …; experiment: as above
[8] = target: T4, human/murine IL-18 chimera in which …; experiment: as above

binding result [1] | IC50, human myelomonocytic cell line KG-1 bioassay; IL-18Rα/β-driven IFN-γ production [2] [nM] | IC50, whole blood assay; LPS+IL-12-driven IFN-γ production [3] [nM] | Kd [4] [nM] | binding result [5] | binding result [6] | binding result [7] | binding result [8] | Binder
no binding | 0.2 | ~3 | ~0.2 |  |  |  |  | 125-2H, neutralizing murine immunoglobulin G1 (IgG1) monoclonal antibody specific for human IL-18 (antibody, V domains shown, Murine IgG1) VH: EIQLQQSGPELVKPGASVKVSCKASGYSFTDYFIYWVKQSHGKSLEWIGDIDPYNGDTSYNQKFRDKATLTVDQSSTTAFMHLNSLTSEDSAVYFCARGLRFWGQGTLVTVSA VL: DIQMTQSPSSLSASLGERVSLTCRASQDIGSKLYWLQQEPDGTFKRLIYATSSLDSGVPKRFSGSRSGSDYSLTISSLESEDFVDYYCLQYASSPYTFGGGTKLAIKR
 | 0.2 | ~3 | ~0.2 | no binding | binds | no binding | no binding | ABT-325, recombinant human immunoglobulin G1 (IgG1) monoclonal antibody specific for human IL-18 (antibody, V domains shown, IgG1 kappa) VH: EVQLVQSGTEVKKPGESLKISCKGSGYTVTSYWIGWVRQMPGKGLEWMGFIYPGDSETRYSPTFQGQVTISADKSFNTAFLQWSSLKASDTAMYYCARVGSGWYPYTFDIWGQGTMVTVSS VL: not shown
